{
  "source": "paper PMC4960638",
  "about": "“Changes in the folding landscape of the WW domain provide a molecular mechanism for an inherited genetic syndrome” (Scientific Reports, 2016)",
  "proteins": {"B1": {"name": "WW domain of polyglutamine tract-binding protein 1 (PQBP1), Y65C mutant, 37 amino acid construct (domain or fragment, human, UniProt O60828 47-83, looked up)", "chain": "GLPPSWYKVFDPSCGLPYCWNADTDLVSWLSPHDPNS", "modifications": "disulfide 14-19 (inferred); not fully specified", "notes": "the mutation causes Golabi-Ito-Hall syndrome; also called Y65C WW domain; WW Y65C; source: purified by size exclusion chromatography"}},
  "molecular_target": "the molecule itself",
  "experiment": "SEC; size exclusion chromatography in the purification of the WW domain; column and buffer not shown (SI)",
  "note": "Bridges are numbered along the chain shown (N, C = ends). Where no end group is shown, it is not given here.",
  "data": [
    {"protein": "B1", "values": [
      {"measurement": "stoichiometry N", "value": 2}
    ]}
  ]
}
